# *1 amine or outer side, *2 acyl side, *3 side chain or, on linkers, in order; H or OH if unused. Bridges are numbered along the chain shown (N, C = ends). Primed or numbered codes have the meaning given here. [ ]: non-standard residue; d: D form. The star is where a group is joined. Ttds = 1,13-diamino-4,7,10-trioxatridecan-succinamic acid, NCCCOCCOCCOCCCNC(=O)CCC(=O)*; Ttds(4) = 1,13-diamino-4,7,10-trioxatridecan-succinamic acid; DOTA = O=C(O)CN1CCN(CC(=O)O)CCN(CC(=O)*)CCN(CC(=O)O)CC1; Trp(5-Cl) = N[C@@H](Cc1c[nH]c2ccc(Cl)cc12)C(=O)O; Pyridine(2,6-diCH2) = c1cc(C[*:1])nc(C[*:2])c1; Trp(7-aza) = N[C@@H](Cc1c[nH]c2ncccc12)C(=O)O; 2Lut″ = 2,6-lutidylidene linking two thiols; Phe(4-Cl) = N[C@@H](Cc1ccc(Cl)cc1)C(=O)O; Phe(2-Cl) = N[C@@H](Cc1ccccc1Cl)C(=O)O; 1Nal = N[C@@H](Cc1cccc2ccccc12)C(=O)O; mXylylene = c1cc(C[*:1])cc(C[*:2])c1; Hyp = O=C(O)[C@@H]1C[C@@H](O)CN1; Cysteamide = C(CS[*:3])N[*:1]; Thp = NC1(C(=O)O)CCOCC1; Aib = CC(C)(N)C(=O)O
# Biological target: human Gastric Inhibitory Peptide Receptor (GIPR) (human) (UniProt P48546)
# Test: FACS competition vs biotinylated GIP-057 on CHO-K1-hGIPR cells; category D: pIC50 <=6.0
row,Binder,pIC50
1,Ac-DW[Phe(4-Cl)][Hyp]E[dL]C[Thp]LIC-NH2 (linker 7-11 via 2Lut″) [Ac-Asp-Trp-Pcf-Hyp-Glu-leu-[Cys(2Lut)-Thp-Leu-Ile-Cys]-NH2],< 6 pic50
2,"Ac-DW[Trp(5-Cl)][Hyp]E[dL]C[Thp]LWC-NH2 (linker 7-11 via Pyridine(2,6-diCH2); SMILES CC(=O)N[C@@H](CC(=O)O)C(=O)N[C@@H](Cc1c[nH]c2ccccc12)C(=O)N[C@@H](Cc1c[nH]c2ccc(Cl)cc12)C(=O)N1C[C@H](O)C[C@H]1C(=O)N[C@@H](CCC(=O)O)C(=O)N[C@H](CC(C)C)C(=O)N[C@H]1CSCc2cccc(n2)CSC[C@@H](C(N)=O)NC(=O)[C@H](Cc2c[nH]c3ccccc23)NC(=O)[C@H](CC(C)C)NC(=O)C2(CCOCC2)NC1=O) [Ac-Asp-Trp-5Clw-Hyp-Glu-leu-[Cys(2Lut)-Thp-Leu-Trp-Cys]-NH2]",< 6 pic50
3,"Ac-DW[Trp(5-Cl)][Hyp]E[dL]C[Thp]LRC-NH2 (linker 7-11 via Pyridine(2,6-diCH2); SMILES CC(=O)N[C@@H](CC(=O)O)C(=O)N[C@@H](Cc1c[nH]c2ccccc12)C(=O)N[C@@H](Cc1c[nH]c2ccc(Cl)cc12)C(=O)N1C[C@H](O)C[C@H]1C(=O)N[C@@H](CCC(=O)O)C(=O)N[C@H](CC(C)C)C(=O)N[C@H]1CSCc2cccc(n2)CSC[C@@H](C(N)=O)NC(=O)[C@H](CCCNC(=N)N)NC(=O)[C@H](CC(C)C)NC(=O)C2(CCOCC2)NC1=O) [Ac-Asp-Trp-5Clw-Hyp-Glu-leu-[Cys(2Lut)-Thp-Leu-Arg-Cys]-NH2]",< 6 pic50
4,Ac-DW[Phe(2-Cl)][Hyp]E[dL]C[Thp]LIC-NH2 (linker 7-11 via 2Lut″) [Ac-Asp-Trp-Ocf-Hyp-Glu-leu-[Cys(2Lut)-Thp-Leu-Ile-Cys]-NH2],< 6 pic50
5,"Ac-DW[Trp(5-Cl)][Hyp]E[dL]C[Thp]LEC-NH2 (linker 7-11 via Pyridine(2,6-diCH2); SMILES CC(=O)N[C@@H](CC(=O)O)C(=O)N[C@@H](Cc1c[nH]c2ccccc12)C(=O)N[C@@H](Cc1c[nH]c2ccc(Cl)cc12)C(=O)N1C[C@H](O)C[C@H]1C(=O)N[C@@H](CCC(=O)O)C(=O)N[C@H](CC(C)C)C(=O)N[C@H]1CSCc2cccc(n2)CSC[C@@H](C(N)=O)NC(=O)[C@H](CCC(=O)O)NC(=O)[C@H](CC(C)C)NC(=O)C2(CCOCC2)NC1=O) [Ac-Asp-Trp-5Clw-Hyp-Glu-leu-[Cys(2Lut)-Thp-Leu-Glu-Cys]-NH2]",< 6 pic50

# Other lines, results leading:
row,pIC50,Binder
1,< 6 pic50,{DOTA-Ttds}-[dL]DP[Trp(5-Cl)]WLCE[Aib]I[Cysteamide] (linker 7-11 via mXylylene) [DOTA-Ttds-leu-Asp-Pro-5Clw-Trp-Leu-[Cys(3MeBn)-Glu-Aib-Ile-AET]]
2,< 6 pic50,{DOTA-Ttds}-[Trp(5-Cl)]PE[dL]DWCIL[Aib][Cysteamide] (linker 7-11 via mXylylene) [DOTA-Ttds-5Clw-Pro-Glu-leu-Asp-Trp-[Cys(3MeBn)-Ile-Leu-Aib-AET]]
3,< 6 pic50,Ac-D[Trp(7-aza)][1Nal]PE[dL]C[Aib]LIC-{Ttds(4)-K(DOTA)-NH2} (linker 7-11 via mXylylene) [Ac-Asp-7Nw-1Ni-Pro-Glu-leu-[Cys(3MeBn)-Aib-Leu-Ile-Cys]-Ttds-Lys(DOTA)-NH2]
